Data published in PMC9321335, “Palmitic Acid-Conjugated Radiopharmaceutical for Integrin αvβ3-Targeted Radionuclide Therapy” (Pharmaceutics, 2022).

How the values were obtained:
[1] = parameters: species or system C57BL/6 mice; conditions: mouse, in vivo
Method: Female KM mice were randomly divided into three groups (n = 5). […] Blood samples obtained from the canthus vein were collected at different time points post injection (p.i.), weighed, and evaluated using a γ-counter. The results are presented as the percentage injected activity per gram (%IA/g). Nonlinear regression (curve fit) followed by two phase decay was performed using GraphPad Prism version 9.0.0 for Windows, GraphPad Software, San Diego, CA, USA, www.graphpad.com (accessed on 22 May 2022). And then the half-lives values were calculated and determined. Blood clearance studies were performed in normal KM mice. […] Blood clearance studies were also performed in C57BL/6 mice.

in vivo = conditions: C57BL/6, mouse, total radioactivity; for tissue to tissue ratio at 1 h / tissue to tissue ratio at 4 h / tissue to tissue ratio at 12 h / tissue to tissue ratio at 24 h / tissue to tissue ratio at 72 h: Tumor-to-tissue ratio
Method: (§1) Mice bearing MC38 xenografts were randomly divided into 10 groups (n = 4). The mice in five groups were administered 0.74 MBq/20 µCi of ^177Lu-Palm-3PRGD2 and sacrificed at 1, 4, 12, 24, and 72 h p.i. The mice on one group was injected with 0.74 MBq/20 µCi of ^177Lu-Palm-3PRGD2 and 500 μg (242 nmol) 3PRGD2 as a blocking agent and sacrificed at 1 h p.i. […] Tumors and major organs were harvested, weighed and measured for radioactivity using a γ-counter. The organ uptake was calculated as the percentage injected activity per gram (%IA/g). The effective absorbed dose in humans estimated from mouse biodistribution data by using a dedicated software (OLINDA 1.0).

MC38 tumor-bearing mice = test: in vivo; conditions: mouse
Method: as §1

Structure (SMILES): CCCCCCCCCCCCCCCC(=O)N[C@@H](CCC(=O)NCCCC[C@H](NC(=O)CN1CCN(CC(=O)O)CCN(CC(=O)O)CCN(CC(=O)O)CC1)C(=O)NCCOCCOCCOCCOCCC(=O)N[C@@H](CCC(=O)NCCOCCOCCOCCOCCC(=O)NCCCC[C@@H]1NC(=O)[C@@H](Cc2ccccc2)NC(=O)[C@H](CC(=O)O)NC(=O)CNC(=O)[C@H](CCCNC(=N)N)NC1=O)C(=O)NCCOCCOCCOCCOCCC(=O)NCCCC[C@@H]1NC(=O)[C@@H](Cc2ccccc2)NC(=O)[C@H](CC(=O)O)NC(=O)CNC(=O)[C@H](CCCNC(=N)N)NC1=O)C(=O)O [^177Lu-Palm-3PRGD2, [^177Lu]Lu-DOTA-Palm-3PRGD2, metal not drawn]
- Half-Life (T1/2α) [1]: 2.08 min
- Half-Life (T1/2β) [1]: 63.71 min
- tissue uptake at 1 h (in vivo; 0.74 MBq, Blood uptake): 9.73 %ID/g
- tissue uptake at 4 h (in vivo; 0.74 MBq, Blood uptake): 4.11 %ID/g
- tissue uptake at 12 h (in vivo; 0.74 MBq, Blood uptake): 0.58 %ID/g
- tissue uptake at 24 h (in vivo; 0.74 MBq, Blood uptake): 0.24 %ID/g
- tissue uptake at 72 h (in vivo; 0.74 MBq, Blood uptake): 0.21 %ID/g
- tissue uptake at 1 h (in vivo; 0.74 MBq, Bone uptake): 3.39 %ID/g
- tissue uptake at 4 h (in vivo; 0.74 MBq, Bone uptake): 4.55 %ID/g
- tissue uptake at 12 h (in vivo; 0.74 MBq, Bone uptake): 3.05 %ID/g
- tissue uptake at 24 h (in vivo; 0.74 MBq, Bone uptake): 3.13 %ID/g
- tissue uptake at 72 h (in vivo; 0.74 MBq, Bone uptake): 1.97 %ID/g
- tissue uptake at 1 h (in vivo; 0.74 MBq, Brain uptake): 0.52 %ID/g
- tissue uptake at 4 h (in vivo; 0.74 MBq, Brain uptake): 0.55 %ID/g
- tissue uptake at 12 h (in vivo; 0.74 MBq, Brain uptake): 0.43 %ID/g
- tissue uptake at 24 h (in vivo; 0.74 MBq, Brain uptake): 0.4 %ID/g
- tissue uptake at 72 h (in vivo; 0.74 MBq, Brain uptake): 0.29 %ID/g
- tissue uptake at 1 h (in vivo; 0.74 MBq, Heart uptake): 5.59 %ID/g
- tissue uptake at 4 h (in vivo; 0.74 MBq, Heart uptake): 4.93 %ID/g
- tissue uptake at 12 h (in vivo; 0.74 MBq, Heart uptake): 3.2 %ID/g
- tissue uptake at 24 h (in vivo; 0.74 MBq, Heart uptake): 2.7 %ID/g
- tissue uptake at 72 h (in vivo; 0.74 MBq, Heart uptake): 1.53 %ID/g
- tissue uptake at 1 h (in vivo; 0.74 MBq, Intestinal uptake): 20.6 ± 1.97 %ID/g
- tissue uptake at 72 h (in vivo; 0.74 MBq, Intestinal uptake): 12.8 ± 1.06 %ID/g
- tissue uptake at 4 h (in vivo; 0.74 MBq, Intestine uptake): 17.6 %ID/g
- tissue uptake at 12 h (in vivo; 0.74 MBq, Intestine uptake): 21.1 %ID/g
- tissue uptake at 24 h (in vivo; 0.74 MBq, Intestine uptake): 17.4 %ID/g
- tissue uptake at 1 h (in vivo; 0.74 MBq, Kidney uptake): 17.6 %ID/g
- tissue uptake at 4 h (in vivo; 0.74 MBq, Kidney uptake): 20.1 ± 0.6 %ID/g
- tissue uptake at 12 h (in vivo; 0.74 MBq, Kidney uptake): 19.3 %ID/g
- tissue uptake at 24 h (in vivo; 0.74 MBq, Kidney uptake): 17 %ID/g
- tissue uptake at 72 h (in vivo; 0.74 MBq, Kidney uptake): 10.6 ± 1.11 %ID/g
- tissue uptake at 1 h (in vivo; 0.74 MBq, Liver uptake): 13.7 %ID/g
- tissue uptake at 4 h (in vivo; 0.74 MBq, Liver uptake): 22.4 ± 2.55 %ID/g
- tissue uptake at 12 h (in vivo; 0.74 MBq, Liver uptake): 22.1 %ID/g
- tissue uptake at 24 h (in vivo; 0.74 MBq, Liver uptake): 13.7 %ID/g
- tissue uptake at 72 h (in vivo; 0.74 MBq, Liver uptake): 6.73 ± 1.18 %ID/g
- tissue uptake at 1 h (in vivo; 0.74 MBq, Lung uptake): 7.79 %ID/g
- tissue uptake at 4 h (in vivo; 0.74 MBq, Lung uptake): 7.85 %ID/g
- tissue uptake at 12 h (in vivo; 0.74 MBq, Lung uptake): 5.2 %ID/g
- tissue uptake at 24 h (in vivo; 0.74 MBq, Lung uptake): 3.53 %ID/g
- tissue uptake at 72 h (in vivo; 0.74 MBq, Lung uptake): 1.55 %ID/g
- tissue uptake at 1 h (in vivo; 0.74 MBq, Muscle uptake): 1.96 %ID/g
- tissue uptake at 4 h (in vivo; 0.74 MBq, Muscle uptake): 1.7 %ID/g
- tissue uptake at 12 h (in vivo; 0.74 MBq, Muscle uptake): 1.24 %ID/g
- tissue uptake at 24 h (in vivo; 0.74 MBq, Muscle uptake): 0.96 %ID/g
- tissue uptake at 72 h (in vivo; 0.74 MBq, Muscle uptake): 0.7 %ID/g
- tissue uptake at 1 h (in vivo; 0.74 MBq, Spleen uptake): 7.35 %ID/g
- tissue uptake at 4 h (in vivo; 0.74 MBq, Spleen uptake): 12.4 %ID/g
- tissue uptake at 12 h (in vivo; 0.74 MBq, Spleen uptake): 18.4 %ID/g
- tissue uptake at 24 h (in vivo; 0.74 MBq, Spleen uptake): 14.9 %ID/g
- tissue uptake at 72 h (in vivo; 0.74 MBq, Spleen uptake): 8.38 %ID/g
- tissue uptake at 1 h (in vivo; 0.74 MBq, Stomach uptake): 5.73 %ID/g
- tissue uptake at 4 h (in vivo; 0.74 MBq, Stomach uptake): 7.22 %ID/g
- tissue uptake at 12 h (in vivo; 0.74 MBq, Stomach uptake): 6.07 %ID/g
- tissue uptake at 24 h (in vivo; 0.74 MBq, Stomach uptake): 3.7 %ID/g
- tissue uptake at 72 h (in vivo; 0.74 MBq, Stomach uptake): 1.38 %ID/g
- tissue uptake at 1 h (in vivo; 0.74 MBq, Tumor uptake): 14.4 ± 2.53 %ID/g
- tissue uptake at 4 h (in vivo; 0.74 MBq, Tumor uptake): 26.3 ± 6.34 %ID/g
- tissue uptake at 12 h (in vivo; 0.74 MBq, Tumor uptake): 22.9 ± 4.2 %ID/g
- tissue uptake at 24 h (in vivo; 0.74 MBq, Tumor uptake): 17.2 ± 3.3 %ID/g
- tissue uptake at 72 h (in vivo; 0.74 MBq, Tumor uptake): 5.83 ± 1.27 %ID/g
- tissue to tissue ratio at 1 h (in vivo; 0.74 MBq, Blood): 1.47
- tissue to tissue ratio at 4 h (in vivo; 0.74 MBq, Blood): 7.28
- tissue to tissue ratio at 12 h (in vivo; 0.74 MBq, Blood): 44.9
- tissue to tissue ratio at 24 h (in vivo; 0.74 MBq, Blood): 73.2
- tissue to tissue ratio at 72 h (in vivo; 0.74 MBq, Blood): 28.2
- tissue to tissue ratio at 1 h (in vivo; 0.74 MBq, Bone): 4.3
- tissue to tissue ratio at 4 h (in vivo; 0.74 MBq, Bone): 6.66
- tissue to tissue ratio at 12 h (in vivo; 0.74 MBq, Bone): 7.14
- tissue to tissue ratio at 24 h (in vivo; 0.74 MBq, Bone): 5.61
- tissue to tissue ratio at 72 h (in vivo; 0.74 MBq, Bone): 2.96
- tissue to tissue ratio at 1 h (in vivo; 0.74 MBq, Brain): 27.9
- tissue to tissue ratio at 4 h (in vivo; 0.74 MBq, Brain): 55.3
- tissue to tissue ratio at 12 h (in vivo; 0.74 MBq, Brain): 52.5
- tissue to tissue ratio at 24 h (in vivo; 0.74 MBq, Brain): 42.5
- tissue to tissue ratio at 72 h (in vivo; 0.74 MBq, Brain): 19.9
- tissue to tissue ratio at 1 h (in vivo; 0.74 MBq, Heart): 2.59
- tissue to tissue ratio at 4 h (in vivo; 0.74 MBq, Heart): 6.12
- tissue to tissue ratio at 12 h (in vivo; 0.74 MBq, Heart): 7.11
- tissue to tissue ratio at 24 h (in vivo; 0.74 MBq, Heart): 6.41
- tissue to tissue ratio at 72 h (in vivo; 0.74 MBq, Heart): 3.86
- tissue to tissue ratio at 1 h (in vivo; 0.74 MBq, Intestine): 0.77
- tissue to tissue ratio at 4 h (in vivo; 0.74 MBq, Intestine): 1.62
- tissue to tissue ratio at 12 h (in vivo; 0.74 MBq, Intestine): 1.06
- tissue to tissue ratio at 24 h (in vivo; 0.74 MBq, Intestine): 1
- tissue to tissue ratio at 72 h (in vivo; 0.74 MBq, Intestine): 0.45
- tissue to tissue ratio at 1 h (in vivo; 0.74 MBq, Kidney): 0.82
- tissue to tissue ratio at 4 h (in vivo; 0.74 MBq, Kidney): 1.42
- tissue to tissue ratio at 12 h (in vivo; 0.74 MBq, Kidney): 1.2
- tissue to tissue ratio at 24 h (in vivo; 0.74 MBq, Kidney): 1.01
- tissue to tissue ratio at 72 h (in vivo; 0.74 MBq, Kidney): 0.56
- tissue to tissue ratio at 1 h (in vivo; 0.74 MBq, Liver): 1.06
- tissue to tissue ratio at 4 h (in vivo; 0.74 MBq, Liver): 1.02
- tissue to tissue ratio at 12 h (in vivo; 0.74 MBq, Liver): 1.05
- tissue to tissue ratio at 24 h (in vivo; 0.74 MBq, Liver): 1.3
- tissue to tissue ratio at 72 h (in vivo; 0.74 MBq, Liver): 0.89
- tissue to tissue ratio at 1 h (in vivo; 0.74 MBq, Lung): 1.87
- tissue to tissue ratio at 4 h (in vivo; 0.74 MBq, Lung): 3.98
- tissue to tissue ratio at 12 h (in vivo; 0.74 MBq, Lung): 3.86
- tissue to tissue ratio at 24 h (in vivo; 0.74 MBq, Lung): 4.89
- tissue to tissue ratio at 72 h (in vivo; 0.74 MBq, Lung): 3.78
- tissue to tissue ratio at 1 h (in vivo; 0.74 MBq, Muscle): 7.33
- tissue to tissue ratio at 4 h (in vivo; 0.74 MBq, Muscle): 17.5
- tissue to tissue ratio at 12 h (in vivo; 0.74 MBq, Muscle): 18
- tissue to tissue ratio at 24 h (in vivo; 0.74 MBq, Muscle): 17.9
- tissue to tissue ratio at 72 h (in vivo; 0.74 MBq, Muscle): 8.33
- tissue to tissue ratio at 1 h (in vivo; 0.74 MBq, Spleen): 2.02
- tissue to tissue ratio at 4 h (in vivo; 0.74 MBq, Spleen): 2.56
- tissue to tissue ratio at 12 h (in vivo; 0.74 MBq, Spleen): 1.4
- tissue to tissue ratio at 24 h (in vivo; 0.74 MBq, Spleen): 1.35
- tissue to tissue ratio at 72 h (in vivo; 0.74 MBq, Spleen): 0.7
- tissue to tissue ratio at 1 h (in vivo; 0.74 MBq, Stomach): 2.57
- tissue to tissue ratio at 4 h (in vivo; 0.74 MBq, Stomach): 4.06
- tissue to tissue ratio at 12 h (in vivo; 0.74 MBq, Stomach): 3.84
- tissue to tissue ratio at 24 h (in vivo; 0.74 MBq, Stomach): 4.74
- tissue to tissue ratio at 72 h (in vivo; 0.74 MBq, Stomach): 4.25
- tissue to tissue ratio at 1 h (in vivo; Blood): 0.25
- tissue to tissue ratio at 1 h (in vivo; Bone): 2.51
- tissue to tissue ratio at 1 h (in vivo; Brain): 14.8
- tissue to tissue ratio at 1 h (in vivo; Heart): 1.32
- tissue to tissue ratio at 1 h (in vivo; Intestine): 0.96
- tissue to tissue ratio at 1 h (in vivo; Kidney): 0.69
- tissue to tissue ratio at 1 h (in vivo; Liver): 1.19
- tissue to tissue ratio at 1 h (in vivo; Lung): 0.71
- tissue to tissue ratio at 1 h (in vivo; Muscle): 3.53
- tissue to tissue ratio at 1 h (in vivo; Spleen): 1.61
- tissue to tissue ratio at 1 h (in vivo; Stomach): 1.64
- AUC0h→72h in MC38 tumor (MC38 tumor-bearing mice): 1031.0 ± 97.25 % IA/g·h
- AUC0h→72h in blood (MC38 tumor-bearing mice): 104.5 ± 7.98 % IA/g·h
- AUC0h→72h in kidney (MC38 tumor-bearing mice): 1087.0 ± 62.73 % IA/g·h
- AUC0h→72h in liver (MC38 tumor-bearing mice): 915.6 ± 74.74 % IA/g·h
